Measured values taken from patent publication EP1874358B1.

What was measured:
[1] = target: CEA (UniProt P06731); test: SE-HPLC of 125I-TF2 mixed with a 20-fold molar excess of CEA
[2] = target: fusion protein containing the A3B3 domain of CEA (UniProt P06731); test: competitive ELISA against HRP-conjugated hMN-14 IgG (1 nM) on A3B3 fusion protein

percent shifted to a high molecular weight species [1]: 95% | fold avidity relative to TF1 [2]: 2 fold
Substance: TF2 (bispecific antibody)
